Measurements: the nanobody polyreactivity screen of Harvey et al. (2022)

Experiment: yeast display, Sf9 membrane polyspecificity reagent, FACS + sequencing; frameworks hold sequencing errors
Outline: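 Galactose induction of a Saccharomyces cerevisiae BJ5465 synthetic nanobody display library ran 36–48 hours. The cells were then stained for 1 hour at 4 °C with 10% biotinylated, detergent-solubilized Sf9 membrane reagent, pulled down on streptavidin microbeads and FACS-sorted into low and high (top ~1%) gates on expression and reagent-binding fluorescence. Labels for polyreactivity follow the gate of origin.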

Q: For “QVQLVESGGGLVQAGGRLRLRCAASGSTFGYYAMGWYRQAPGKERELVAAISRSGGITYYADSVKGRFTISRDNAKNTVYLQMNSLKPEDTAVYYCAADRNRYTGEDDSWGEGTQVTVSS”, which “polyreactivity (PSR sort gate)” value is on record?
A: low polyreactivity

Q: With “QVQLVESGGGLVQAGGRLRLSCAASGFIFRPYAMGWYRQAPGKERELVPTISYRGGSTDYADSVKGRFTISRDNAKNTVYLQMNSLKPEDTAVYYCNAGYNRGYYYPVFAFFPYEYWGQGTQVTVSS” as the sequence, how does the “polyreactivity (PSR sort gate)” value read?
A: low polyreactivity

Q: Which “polyreactivity (PSR sort gate)” value does the source give for “QVQLVESGGGLVQAGGRLRLSCAASGFTFPRYAMGWYRQAPGKERELVAAISRGGSTNYADSVKGRFTISRDNAKNTVYLQMNSLKPEDTAVYDCAKVLRRWPDPAWGMDYWGQGTQVTVSS” here?
A: high polyreactivity

Q: With “QVQLVESGGGLVQAGGRLRLSCAASGFTFRGYAMGWYRQAPGKERELVAAITKRGGSTYYADSVKGRFTISRDNAKNTVYLQMNSLKPEDTAVYYCNKYAGQTTYDYWGQGTQVTVSS” as the sequence, how does the “polyreactivity (PSR sort gate)” value read?
A: high polyreactivity

Q: Which “polyreactivity (PSR sort gate)” value does the source give for “QVQLVESGGGLVQAGGRLRLSCAASGFTFTRYTMGWYRQAPGKERELVARITRSGASTYYADSVKGRFTISRDNAKNTVYLQMNSLKPEDTAVYYCAADTWSYTTRYYYWGQGTQVTVSS” here?
A: high polyreactivity

Q: Which “polyreactivity (PSR sort gate)” value does the source give for “QVQLVESGGGLVQAGGRLRLSCAASGFTFYNYAMGWYRQAPGKERELVAAISWSGGSTHYADSVKGRFTISRDNAKNTVFLQMNSLKPEDTAVYYCAKVGVLGYYTYYYWGQGTQVTVSS” here?
A: low polyreactivity

Q: With “QVQLVESGGGLVQAGGRLRLSCAASGFTFYWNAMGWYRQAPGKERELVAAINWRGTSTYYADSVKGRFTISRDNAKNTVYLQMNSLKPEDTAVDYCNTYVYVEYDWGQGTQVTVSS” as the sequence, how does the “polyreactivity (PSR sort gate)” value read?
A: high polyreactivity

Q: With “QVQLVESGGGLVQAGGRLRLSCAASGFTFYYYTMGWYRQAPGKEREVVAAITWRGGSTNYADSVKGRFTISRDNAKNTVYLQMNSLKPEDTAVYYCAAVTYWFWPGMDYWGQGTQVTVSS” as the sequence, how does the “polyreactivity (PSR sort gate)” value read?
A: low polyreactivity

Q: With “QVQLVESGGGLVQAGGRLRLSCAASGFTYRGNAMGWYRHAPGKERELVAAITSSDDSTYYADSVKGRFTISRDNAKITVYLQMNSLKPVDTAVYYCAAVANGYWTYEYWGQGTLVTVSS” as the sequence, how does the “polyreactivity (PSR sort gate)” value read?
A: low polyreactivity

Q: For “QVQLVESGGGLVQAGGRLRLSCAASGGTFHKYAMGWYRQAPGKERELVAGISRRTGTTYYADSVKGRFTISRDNAKNTVYLQMNSLKPEDTAVYYCATDWGRYSRLSKADPSDYWGQGTHVTVSS”, which “polyreactivity (PSR sort gate)” value is on record?
A: high polyreactivity

Q: With “QVQLVESGGGLVQAGGRLRLSCAASGGTFYYYAMGWYRQAPGKERELVAAIRRRGGGTYSADSVKGRFTISRDNAKNTVYLQMNSLKPEDTAVYYCARDKLRSWWGDYNTYYPDDSWGQGTQVTVSS” as the sequence, how does the “polyreactivity (PSR sort gate)” value read?
A: high polyreactivity

Q: Which “polyreactivity (PSR sort gate)” value does the source give for “QVQLVESGGGLVQAGGRLRLSCAASGIIFDTYVMGWYRQAPGKERELVAAITRSGGRTRYADSVKGRFTISRDNAKNTVYLQMNSLKPEDTAVYYCAARIPDRQDGYGYWGQGTQVTVSS” here?
A: high polyreactivity

Q: For “QVQLVESGGGLVQAGGRLRLSCAASGITFRTYAMGWYREAPGKERELVDAITRRGGSTYYADSVKGRFTISRDNAKNTVYLQMNSLKPEDTAVYYCAVRHNGIQASVGYDYWGQGTQVTGSS”, which “polyreactivity (PSR sort gate)” value is on record?
A: high polyreactivity

Q: For “QVQLVESGGGLVQAGGRLRLSCAASGITFSGYVLGWDRPAPGKERELVAAISSSGGRTYYADSVKGRFTISRDNAKNTVYLQMNSLKPEDTAVYYCAARFLYANRYSVDYDYWGQGTQVTVSS”, which “polyreactivity (PSR sort gate)” value is on record?
A: high polyreactivity

Q: For “QVQLVESGGGLVQAGGRLRLSCAASGITFYENAMGWYRQAPGKERELVAAISYSGGNTYPDSVKGRFTISRDNEKNTVYLQMNSLKPEDTAVYYCNADYAGWGEYDYCGQGTQVTVSS”, which “polyreactivity (PSR sort gate)” value is on record?
A: low polyreactivity

Q: With “QVQLVESGGGLVQAGGRLRLSCAASGLIFDDYAMGWYRQAPGKERALVAAIDWGGGSTYYADSVKGRFTISRDNAKNTVYLQMNSLTPEHTAVYYCAADSYFSYRYNYWGQGTQVTVSS” as the sequence, how does the “polyreactivity (PSR sort gate)” value read?
A: low polyreactivity
